Data: PMC6743362

Molecular target: microtubules (MT fraction from mouse brain) (mouse (endogenous in mouse brain)) (UniProt P68369)
Assay: co-sedimentation

Substance	MT-bound fraction	MT-unbound fraction
recombinant human tau lacking both PRR2 and MTBD (ΔPRR2-MTBD) (from UniProt P10636-6 1-383) (natural protein)	0.059	0.941
recombinant human tau lacking the proline-rich region 2 (ΔPRR2) (from UniProt P10636-6 1-383) (natural protein)	0.839	0.161
recombinant human tau, 0N4R variant (WT tau) (from UniProt P10636-6 1-383) (natural protein)	0.989	–
